In paper PMC5561102, “Fusion protein analysis reveals the precise regulation between Hsp70 and Hsp100 during protein disaggregation” (Scientific Reports, 2017):
One block for each substance: values may come before it.

Experiments:
[1] = target: TK_ΔSBDα_K69A-B (Thermus thermophilus) (UniProt Q56235)
[2] = target: TK_NBD-B (Thermus thermophilus) (UniProt Q56235)
Target sequence in this assay (Q56235 other isoform, or with tags, fused parts or gaps): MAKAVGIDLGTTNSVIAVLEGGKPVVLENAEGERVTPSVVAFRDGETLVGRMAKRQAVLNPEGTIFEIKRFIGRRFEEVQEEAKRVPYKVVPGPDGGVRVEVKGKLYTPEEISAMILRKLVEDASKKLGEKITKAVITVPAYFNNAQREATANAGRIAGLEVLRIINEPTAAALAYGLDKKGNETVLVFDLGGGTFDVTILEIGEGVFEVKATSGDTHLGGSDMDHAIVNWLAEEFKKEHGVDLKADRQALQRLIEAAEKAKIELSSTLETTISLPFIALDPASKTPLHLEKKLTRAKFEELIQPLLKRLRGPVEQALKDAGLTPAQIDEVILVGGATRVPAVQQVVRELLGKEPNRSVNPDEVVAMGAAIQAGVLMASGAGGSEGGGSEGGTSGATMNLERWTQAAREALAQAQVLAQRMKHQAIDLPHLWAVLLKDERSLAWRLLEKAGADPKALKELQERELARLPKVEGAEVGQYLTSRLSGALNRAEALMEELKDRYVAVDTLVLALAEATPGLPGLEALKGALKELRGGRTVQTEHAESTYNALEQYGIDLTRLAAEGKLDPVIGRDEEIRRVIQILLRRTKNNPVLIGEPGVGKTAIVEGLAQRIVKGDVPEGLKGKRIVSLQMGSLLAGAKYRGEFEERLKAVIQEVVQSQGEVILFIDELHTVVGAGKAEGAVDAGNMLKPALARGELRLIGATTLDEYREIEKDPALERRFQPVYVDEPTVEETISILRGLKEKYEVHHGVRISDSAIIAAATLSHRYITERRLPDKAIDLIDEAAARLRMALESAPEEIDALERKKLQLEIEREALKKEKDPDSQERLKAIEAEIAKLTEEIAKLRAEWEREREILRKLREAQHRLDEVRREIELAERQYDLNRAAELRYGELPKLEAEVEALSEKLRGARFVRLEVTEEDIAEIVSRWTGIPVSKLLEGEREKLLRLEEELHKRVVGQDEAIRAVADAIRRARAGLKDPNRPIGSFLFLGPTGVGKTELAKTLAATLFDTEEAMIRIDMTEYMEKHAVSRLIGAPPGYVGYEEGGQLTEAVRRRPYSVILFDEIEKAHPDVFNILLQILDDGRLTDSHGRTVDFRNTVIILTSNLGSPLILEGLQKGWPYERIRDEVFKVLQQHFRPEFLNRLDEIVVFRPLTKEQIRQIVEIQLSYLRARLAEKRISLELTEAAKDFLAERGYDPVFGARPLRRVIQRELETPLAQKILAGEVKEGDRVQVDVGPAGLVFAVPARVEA

[3] = target: TK_NBD_K69A-B (Thermus thermophilus) (UniProt Q56235)
[4] = target: TK_NBD_T195A-B (Thermus thermophilus) (UniProt Q56235)
[5] = target: TK_NBD-B (Thermus thermophilus) (UniProt Q56235); remark: listed apart in the source
Target sequence in this assay (Q56235 other isoform, or with tags, fused parts or gaps): as above

[6] = target: TK_NBD_K69A-B (Thermus thermophilus) (UniProt Q56235); remark: listed apart in the source
[7] = target: TK_NBD_T195A-B (Thermus thermophilus) (UniProt Q56235); remark: listed apart in the source
[8] = target: TK_NBD-B (Thermus thermophilus) (UniProt Q56235); remark: listed apart in the source
[9] = target: TK_ΔSBDα_T195A-B (Thermus thermophilus) (UniProt Q56235)
[10] = target: TK-B (Thermus thermophilus) (UniProt Q56235)
ClpB (Escherichia coli) = ClpB (Escherichia coli) (UniProt P63284); details: cited from earlier work
Chain of ClpB (Escherichia coli) (P63284 whole entry): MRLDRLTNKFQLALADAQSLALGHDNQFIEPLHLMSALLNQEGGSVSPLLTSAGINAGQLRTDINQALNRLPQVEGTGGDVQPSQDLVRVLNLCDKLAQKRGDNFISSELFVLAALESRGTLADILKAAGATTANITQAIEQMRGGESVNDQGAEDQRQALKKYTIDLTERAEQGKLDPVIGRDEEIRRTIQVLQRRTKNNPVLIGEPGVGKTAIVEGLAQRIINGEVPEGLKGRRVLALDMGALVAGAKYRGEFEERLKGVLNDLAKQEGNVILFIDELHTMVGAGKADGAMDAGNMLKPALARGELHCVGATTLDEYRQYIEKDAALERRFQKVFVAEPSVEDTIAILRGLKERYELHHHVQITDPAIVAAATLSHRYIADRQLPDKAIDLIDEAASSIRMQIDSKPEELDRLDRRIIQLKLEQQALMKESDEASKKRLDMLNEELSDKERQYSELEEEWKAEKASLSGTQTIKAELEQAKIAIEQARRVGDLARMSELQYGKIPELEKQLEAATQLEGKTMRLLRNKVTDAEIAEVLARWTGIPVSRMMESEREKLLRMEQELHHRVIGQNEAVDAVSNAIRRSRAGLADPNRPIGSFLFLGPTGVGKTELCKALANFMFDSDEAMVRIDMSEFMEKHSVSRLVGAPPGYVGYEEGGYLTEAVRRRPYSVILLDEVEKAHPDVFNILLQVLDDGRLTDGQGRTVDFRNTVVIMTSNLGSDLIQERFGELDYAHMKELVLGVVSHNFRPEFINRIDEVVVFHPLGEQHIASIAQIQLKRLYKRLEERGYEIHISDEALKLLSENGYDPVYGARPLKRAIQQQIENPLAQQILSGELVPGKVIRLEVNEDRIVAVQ

Chain of Thermus thermophilus DnaK (TDnaK) (Q56235 whole entry): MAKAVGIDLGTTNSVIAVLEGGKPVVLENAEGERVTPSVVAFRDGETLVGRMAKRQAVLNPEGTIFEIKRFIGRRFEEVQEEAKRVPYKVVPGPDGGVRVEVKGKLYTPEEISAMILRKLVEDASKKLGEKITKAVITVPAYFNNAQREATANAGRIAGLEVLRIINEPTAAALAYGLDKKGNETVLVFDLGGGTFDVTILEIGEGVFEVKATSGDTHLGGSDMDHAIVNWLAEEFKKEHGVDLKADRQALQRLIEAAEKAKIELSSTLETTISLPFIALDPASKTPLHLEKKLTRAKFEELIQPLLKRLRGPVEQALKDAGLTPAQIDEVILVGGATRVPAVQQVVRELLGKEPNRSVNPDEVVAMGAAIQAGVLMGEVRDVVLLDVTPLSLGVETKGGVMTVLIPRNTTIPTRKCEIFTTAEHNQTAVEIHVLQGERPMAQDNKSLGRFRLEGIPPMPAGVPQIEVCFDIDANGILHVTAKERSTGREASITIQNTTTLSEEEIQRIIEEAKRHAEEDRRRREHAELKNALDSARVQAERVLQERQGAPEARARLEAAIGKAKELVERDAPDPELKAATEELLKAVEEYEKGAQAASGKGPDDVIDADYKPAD
Chain of TK_NBD_K69A-B (Thermus thermophilus) (Q56235 other isoform, or with tags, fused parts or gaps K69A | K69A): as the sequence (Q56235 other isoform, or with tags, fused parts or gaps) above, with K69A counted along it
Chain of TK_NBD_T195A-B (Thermus thermophilus) (Q56235 other isoform, or with tags, fused parts or gaps T195A | T195A): as the sequence (Q56235 other isoform, or with tags, fused parts or gaps) above, with T195A counted along it
Chain of DnaK (P0A6Y8 2-638): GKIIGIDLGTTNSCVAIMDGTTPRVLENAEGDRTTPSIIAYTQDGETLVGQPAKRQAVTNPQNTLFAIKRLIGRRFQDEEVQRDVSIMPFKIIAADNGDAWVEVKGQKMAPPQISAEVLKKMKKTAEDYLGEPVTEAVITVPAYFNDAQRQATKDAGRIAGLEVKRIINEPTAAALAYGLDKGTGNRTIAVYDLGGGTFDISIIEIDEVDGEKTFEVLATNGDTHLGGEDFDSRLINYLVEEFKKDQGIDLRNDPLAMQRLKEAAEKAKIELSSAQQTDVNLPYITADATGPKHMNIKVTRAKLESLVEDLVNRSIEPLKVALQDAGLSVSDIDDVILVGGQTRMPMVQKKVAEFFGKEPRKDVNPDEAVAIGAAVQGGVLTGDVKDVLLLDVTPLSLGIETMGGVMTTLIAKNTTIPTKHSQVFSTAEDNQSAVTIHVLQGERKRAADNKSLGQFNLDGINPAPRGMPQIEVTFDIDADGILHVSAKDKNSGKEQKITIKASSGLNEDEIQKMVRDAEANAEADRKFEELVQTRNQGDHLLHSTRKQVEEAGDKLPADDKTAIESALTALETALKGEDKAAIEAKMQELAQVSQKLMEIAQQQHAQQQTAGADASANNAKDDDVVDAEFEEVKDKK

- ATPase activity of the fusion, 55 °C, 3 mM ATP, against TK K69A-B (fold of TK K69A-B) [1]: 1.5
Substance: TK_ΔSBDα_K69A-B (from UniProt Q56235 1-501; Q9RA63 1-854)

- rate of reactivation of heat-aggregated EYFP by the fusion with unfused TDnaK, TDnaJ, TGrpE (TKJE) and 5 mM ATP, 55 °C [2]: < 0.1 % min^-1
- rate of reactivation of heat-aggregated EYFP by the fusion with unfused TDnaK, TDnaJ, TGrpE (TKJE) and 5 mM ATP, 55 °C [3]: < 0.1 % min^-1
- rate of reactivation of heat-aggregated EYFP by the fusion with unfused TDnaK, TDnaJ, TGrpE (TKJE) and 5 mM ATP, 55 °C [4]: < 0.1 % min^-1
- reactivation of heat-aggregated α-glucosidase by the fusion with unfused TDnaK, TDnaJ, TGrpE (TKJE) and 5 mM ATP, 55 °C, 90 min [5]: < 2%
- reactivation of heat-aggregated α-glucosidase by the fusion with unfused TDnaK, TDnaJ, TGrpE (TKJE) and 5 mM ATP, 55 °C, 90 min [6]: < 2%
- reactivation of heat-aggregated α-glucosidase by the fusion with unfused TDnaK, TDnaJ, TGrpE (TKJE) and 5 mM ATP, 55 °C, 90 min [7]: < 2%
Substance: Thermus thermophilus DnaK (TDnaK) (from UniProt Q56235 1-615) (natural protein)

- ATPase activity of the fusion (TClpB portion stimulated by the fused NBD of TDnaK), 55 °C, 3 mM ATP, against TK-B [8]: 2 fold of TK-B
Substance: TK_NBD-B (from UniProt Q56235 1-377; Q9RA63 1-854)

- ATPase stimulation of the fusion, 55 °C, 3 mM ATP [9]: 2 fold
Substance: TK_ΔSBDα_T195A-B (from UniProt Q56235 1-501; Q9RA63 1-854)

- ATPase activity of the fusion (TClpB portion stimulated by the fused TDnaK portion), 55 °C, 3 mM ATP, against unfused TClpB (times that of TClpB) [10]: 5
Substance: TK-B (from UniProt Q56235 1-615; Q9RA63 1-854)

Substance: DnaK (from UniProt P0A6Y8)
- Kd (ClpB (Escherichia coli)): 25 µM
